According to patent US20250076311A1 (Chugai, published 2025):
Changes are numbered by the printed parent chain. Numbers in names are those of the source. Where two headings read alike, the source gives them in different places.

What was measured:
[1] = biological target: T1, cynomolgus monkey FcγRIIIaS extracellular domain with C-terminal His-tag (cynomolgus monkey, UniProt Q8SPW2 21-206 at identity 1.00)); experiment: SPR, KD(SG1)/KD(variant)
T1 construct: also called cyno FcgRIIIaS; cynoFcγRIIIaS
T1 chain: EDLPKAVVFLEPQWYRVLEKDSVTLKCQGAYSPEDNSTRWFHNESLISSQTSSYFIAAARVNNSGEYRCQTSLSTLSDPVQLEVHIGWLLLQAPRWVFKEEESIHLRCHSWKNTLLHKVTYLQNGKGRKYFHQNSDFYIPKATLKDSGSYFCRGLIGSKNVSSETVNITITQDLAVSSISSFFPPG

[2] = biological target: T2, human FcγRIIaH extracellular domain with C-terminal His-tag (human, UniProt P12318 34-217); experiment: SPR, KD(SG1)/KD(variant)
T2 construct: also called human FcgRIIaH; FcγRIIa (type H)
T2 sequence: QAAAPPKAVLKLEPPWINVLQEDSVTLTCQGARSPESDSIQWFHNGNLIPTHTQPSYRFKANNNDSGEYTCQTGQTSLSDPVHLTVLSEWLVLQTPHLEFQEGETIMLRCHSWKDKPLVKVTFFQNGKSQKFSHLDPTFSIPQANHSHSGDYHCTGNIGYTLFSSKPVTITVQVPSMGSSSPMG

[3] = biological target: T3, cynomolgus monkey FcγRIIa3 extracellular domain with C-terminal His-tag (cynomolgus monkey); experiment: SPR, KD(SG1)/KD(variant)
T3 construct: also called cyno FcgRIIa3; cynoFcγRIIa3
T3 chain: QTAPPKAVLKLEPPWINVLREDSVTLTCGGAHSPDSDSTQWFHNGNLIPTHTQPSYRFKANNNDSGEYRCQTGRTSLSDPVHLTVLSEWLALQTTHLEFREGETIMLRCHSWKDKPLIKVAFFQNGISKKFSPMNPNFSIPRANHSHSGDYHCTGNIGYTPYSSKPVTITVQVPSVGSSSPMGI
Method: (§1) The kinetic analysis of interactions between these antibodies and FcγR was carried out using BIACORE® T200 or BIACORE® 4000 (GE Healthcare). HBS-EP+ (GE Healthcare) was used as the running buffer, and the measurement temperature was set to 25° C. […] After the measurement, the antibody captured on the chip was washed off by allowing reaction with 10 mM glycine-HCl, pH1.5 and 25 mM NaOH so that the chip was regenerated and used repeatedly. The sensorgrams obtained as measurement results were analyzed by the 1:1 Langmuir binding model using the BIACORE® Evaluation Software to calculate the binding rate constant ka (L/mol/s) and dissociation rate constant kd (1/s), and the dissociation constant KD (mol/L) was calculated from these values. […] Regarding such interactions, KD values were calculated using the following 1:1 binding model described in BIACORE® T100 Software Handbook BR1006-48 Edition AE.

[4] = biological target: T1, cynomolgus monkey FcγRIIIaS …; experiment: SPR, KD(SG1)/KD(variant)
Method: as §1

[5] = biological target: T4, cynomolgus monkey FcγRIIb extracellular domain with C-terminal His-tag (cynomolgus monkey); experiment: SPR, KD(SG1)/KD(variant)
T4 construct: also called cyno FcgRIIb; cynoFcγRIIb
T4 chain: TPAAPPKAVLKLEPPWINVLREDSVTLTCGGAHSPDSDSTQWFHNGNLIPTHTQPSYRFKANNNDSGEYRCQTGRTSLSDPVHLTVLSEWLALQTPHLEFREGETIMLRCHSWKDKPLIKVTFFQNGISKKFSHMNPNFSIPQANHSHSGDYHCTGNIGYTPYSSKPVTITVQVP
Method: as §1

[6] = biological target: T1, cynomolgus monkey FcγRIIIaS …; experiment: SPR, antibody captured, FcγR analyte
[7] = biological target: T5, cynomolgus monkey FcγRIIa2 extracellular domain with C-terminal His-tag (cynomolgus monkey); experiment: SPR (Biacore), antibody captured, FcgR as analyte
T5 construct: also called cyno FcgRIIa2; cynoFcγRIIa2
T5 chain: T3 chain with I127K, K130N, P133H, R142Q

[8] = biological target: T6, human FcγRIIaH extracellular domain with C-terminal His-tag (human, UniProt P12318 34-217); experiment: SPR (Biacore), antibody captured, FcgR as analyte
T6 construct: also called human FcgRIIaH; FcγRIIa (type H)
T6 sequence: T2 sequence

[9] = biological target: T7, human FcγRIIb extracellular domain with C-terminal His-tag (human, UniProt P31994 43-217); experiment: SPR (Biacore), KD of SG1 divided by KD of variant
T7 construct: also called human FcgRIIb
T7 sequence: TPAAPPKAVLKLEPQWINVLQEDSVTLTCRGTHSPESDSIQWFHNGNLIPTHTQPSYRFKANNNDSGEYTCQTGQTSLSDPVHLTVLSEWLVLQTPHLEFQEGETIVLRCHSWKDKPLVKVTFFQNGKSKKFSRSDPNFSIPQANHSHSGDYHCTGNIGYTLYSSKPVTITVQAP

[10] = biological target: T8, cynomolgus monkey FcγRIIb extracellular domain with C-terminal His-tag (cynomolgus monkey); experiment: SPR (Biacore), KD of SG1 divided by KD of variant
T8 construct: also called cyno FcgRIIb; cynoFcγRIIb
T8 chain: T4 chain

[11] = biological target: T6, human FcγRIIaH extracellular domain …; experiment: SPR (Biacore), KD of SG1 divided by KD of variant
[12] = biological target: T9, human FcγRIIaR extracellular domain with C-terminal His-tag (human, UniProt P12318 34-217); experiment: SPR (Biacore), KD of SG1 divided by KD of variant
T9 construct: also called human FcgRIIaR; FcγRIIa (type R)
T9 chain: T2 sequence with H134R

[13] = biological target: T10, cynomolgus monkey FcγRIIa2 extracellular domain with C-terminal His-tag (cynomolgus monkey); experiment: SPR, KD(SG1)/KD(variant)
T10 construct: also called cyno FcgRIIa2; cynoFcγRIIa2
T10 chain: T3 chain with I127K, K130N, P133H, R142Q
Method: as §1

[14] = biological target: T11, cynomolgus monkey FcγRIIa1 extracellular domain with C-terminal His-tag (cynomolgus monkey); experiment: SPR, KD(SG1)/KD(variant)
T11 construct: also called cyno FcgRIIa1; cynoFcγRIIa1
T11 chain: T3 chain with T95P, A121T, S128A, P133H, N135D
Method: as §1

[15] = biological target: T3, cynomolgus monkey FcγRIIa3 …; experiment: SPR, antibody captured, FcγR analyte
[16] = biological target: T4, cynomolgus monkey FcγRIIb extracellular …; experiment: SPR, antibody captured, FcγR analyte
[17] = biological target: T12, cynomolgus monkey FcγRIIa3 extracellular domain with C-terminal His-tag (cynomolgus monkey); experiment: SPR (Biacore), antibody captured, FcgR as analyte
T12 construct: also called cyno FcgRIIa3; cynoFcγRIIa3
T12 chain: T3 chain

[18] = biological target: T9, human FcγRIIaR extracellular domain …; experiment: SPR (Biacore), antibody captured, FcgR as analyte
[19] = biological target: T7, human FcγRIIb extracellular domain with …; experiment: SPR (Biacore), antibody captured, FcgR as analyte
[20] = biological target: T5, cynomolgus monkey FcγRIIa2 …; experiment: SPR (Biacore), KD of SG1 divided by KD of variant
[21] = biological target: T13, cynomolgus monkey FcγRIIIaS extracellular domain with C-terminal His-tag (cynomolgus monkey, UniProt Q8SPW2 21-206 at identity 1.00)); experiment: SPR (Biacore), antibody captured, FcgR as analyte
T13 construct: also called cyno FcgRIIIaS; cynoFcγRIIIaS
T13 chain: T1 chain

[22] = biological target: T14, cynomolgus monkey FcγRIIa1 extracellular domain with C-terminal His-tag (cynomolgus monkey); experiment: SPR (Biacore), antibody captured, FcgR as analyte
T14 construct: also called cyno FcgRIIa1; cynoFcγRIIa1
T14 chain: T3 chain with T95P, A121T, S128A, P133H, N135D

[23] = biological target: T3, cynomolgus monkey FcγRIIa3 …; experiment: SPR, KD(SG1)/KD(variant)
Method: as §1

B1: M103205H795-MY535/M103202L889-SK1 (antibody, human IgG1, kappa, name in EU numbering)
heavy: QVTLKESGPVLVKPTETLTLTCTVSGIDLSHDDISWVRQAPGKGLEWVGIISYAGSTYYASWAKGRLTISKDTSKNQVVLTMTNMDPVDTATYYCARGVPAYSHGGDLWGQGTLVTVSSASTKGPSVFPLAPSSKSTSGGTAALGCLVKDYFPEPVTVSWNSGALTSGVHTFPAVLQSSGLYSLSSVVTVPSSSLGTQTYICNVNHKPSNTKVDKKVEPKSCDKTHTCPPCPGPEWLTGPSVFLFPPKPKDTLMISRTPEVTCVVVDVSDEDPEVKFNWYVDGVEVHNAKTKPREEQYNSTYRVVSVLTVLHQDWLNGKEYKCKVSNKALPKPIEKTISKAKGQPREPQVYTLPPSREEMTKNQVSLTCLVKGFYPSDIAVEWESNGQPENNYKTTPPVLDSDGSFFLYSKLTVDKSRWQQGNVFSCSVMHEALHNHYTQKSLSLSP
light: DIVMTQSPATLSLSPGERATLSCTSSQSVYHANWLSWFQQKPGQPPKLLIYWASTLAYGVPSRFSGSGSGTDFTLTISSLQPEDAATYYCAGGYGGGRYAFGQGTKVEIKRTVAAPSVFIFPPSDEQLKSGTASVVCLLNNFYPREAKVQWKVDNALQSGNSQESVTEQDSKDSTYSLSSTLTLSKADYEKHKVYACEVTHQGLSSPVTKSFNRGEC
notes: copies: 2 + 2
B1 was tested, and the “KD fold (SG1 = 1)” value [1] was 0.17 fold and the “KD fold (SG1 = 1)” value [2] was 1.8 fold.

B2: MS1032LO06-MY201 (antibody, human IgG1, kappa)
heavy: B1 heavy with G233A, W236L, T238N
light: B1 light
notes: also called M103205H795-MY201; copies: 2 + 2
In the case of B2, the “KD fold (SG1 = 1)” value [3] is reported as 4.5 fold, the “KD fold (SG1 = 1)” value [4] is reported as 0.08 fold and the “KD fold (SG1 = 1)” value [5] is reported as 5 fold. The Kd [6] was 3.7 µM.

B3: M103205H795-MY387 / M103202L889-SK1 (antibody, human IgG1, kappa, name in EU numbering)
heavy: B1 heavy with G233A, W236L, S241V
light: B1 light
With B3 the Kd [7] was 1.9 µM, the Kd [8] was 0.24 µM and the “KD fold (SG1 = 1)” value [9] was 2.9 fold. The “KD fold (SG1 = 1)” value [10] was 2.7 fold, the “KD fold (SG1 = 1)” value [11] was 2.9 fold and the “KD fold (SG1 = 1)” value [12] was 5.5 fold.

B4: MS1032LO06-PK56 (antibody, human IgG1, kappa)
heavy: B1 heavy with G233A, W236L, T238N, Q313R, P345R, D415R
light: B1 light
notes: MY201 with Q311R/P343R/D413R; also called MS103205H795-PK56; M103205H795-MY56
B4 was tested, and the “KD fold (SG1 = 1)” value [3] was 2.5 fold, the “KD fold (SG1 = 1)” value [13] was 3.9 fold and the “KD fold (SG1 = 1)” value [4] was 0.08 fold. The “KD fold (SG1 = 1)” value [14] was 2.5 fold, the Kd [15] was 3.5 µM and the Kd [6] was 4.4 µM. It also gave a Kd [16] of 0.55 µM.

B5: M103205H795-MY339 / M103202L889-SK1 (antibody, human IgG1, kappa, name in EU numbering)
heavy: B1 heavy with G233A, W236L, T238L, K328T, P398K
light: B1 light
In the case of B5, the Kd [17] is reported as 9.8 µM, the Kd [18] is reported as 0.63 µM and the “KD fold (SG1 = 1)” value [9] is reported as 1.6 fold.

B6: M103205H795-MY534 / M103202L889-SK1 (antibody, human IgG1, kappa, name in EU numbering)
heavy: B1 heavy with G233A, W236L, S241V, Q297L
light: B1 light
With B6 the Kd [19] was 1.2 µM and the “KD fold (SG1 = 1)” value [20] was 3.5 fold.

B7: M103205H795-MY526 / M103202L889-SK1 (antibody, human IgG1, kappa, name in EU numbering)
heavy: B1 heavy with G233T, W236L, S241V, Q297L
light: B1 light
B7 showed a Kd [21] of 1.6 µM and a Kd [22] of 1.3 µM.

B8: MS1032LO06-MY205 (antibody, human IgG1, kappa)
heavy: B1 heavy with G233A, W236L, T238N, Q297L
light: B1 light
notes: also called M103205H795-MY205; copies: 2 + 2
With B8 the “KD fold (SG1 = 1)” value [23] was 5.2 fold.
